The record followed here is US20180280551A1 (published 2018).

In test [1] the target is Class II MHC (mouse), on splenocytes and lymphoid organ cells (mouse). Nature of the test: FACS, splenocytes stained in vitro with different concentrations of Alexa647-labeled DC8 monomer or dimer; reference DC8 monomer. (In general: In flow cytometry, cells or beads pass a laser one at a time.)
For test [2] the target is unchanged. Nature of the test: FACS of spleen cells harvested 3 h after i.v. injection of Alexa647-labeled VHH into B6 mice; reference non-PEGylated DC8-Alexa647.
Test [3] has the same target. In words: FACS of spleen cells harvested 3 h after i.v. injection of Alexa647-labeled VHH into B6 mice; reference non-PEGylated DC8-Alexa647; no staining in the spleen of an MHC II-/- mouse.
Test [4] addresses T1, CD11b (mouse), on the CD11b+ mutuDC dendritic cell line and on cells of lymphoid organs (mouse, UniProt P05555 17-1153).
T1 construct: whole, on cells; Its partner chain on the cell surface is not mentioned
In words: FACS, CD11b+ mutuDC dendritic cell line stained in vitro with Alexa647-labeled DC13 monomer or dimer; reference DC13 monomer. From the text: Cells were harvested and analyzed with FACS.
Four sortase substrates were designed and synthesized for production of dimers or PEGylated VHHs (FIG. 1). The substrates either contain two bioorthogonal handles or a handle and a flourophore. The Alexa647-labeled substrate was designed such that the reaction products could be used in FACS experiments to estimate relative in vitro binding affinities. […] The dimers were produced as exemplified in FIG. 2. For DC8 (anti Class II), splenocytes were stained with different concentrations of monomers and dimers and analyzed by FACS. For DC13 (anti CD11b), the CD11b⁺ mutuDC dendritic cell line was used. For Class II MHC and CD11b, VHH dimers bind approximately 3.3 and 2.3-fold better than their corresponding monomers respectively (FIG. 3). The in vivo binding characteristics of the VHH dimers versus monomers were evaluated. Due to the more abundant expression of Class II MHC molecules on splenocytes compared to that of CD11b, the in vivo binding affinity for anti-Class II dimers was explored. Mice were injected i.v. with equal amounts of monomers and dimers (0.25 nmol) of DC8. 2 h p.i., mice were euthanized and lymphoid organs were excised for examination. Monomers and dimers yielded different staining patterns (FIG. 3B), with the dimer showing interspersed yet more pronounced staining than the monomer, corroborating the FACS results. […]

Chain of Class II MHC (mouse), on splenocytes and lymphoid organ cells (mouse) (P14434 24-256, chain 1 of 2): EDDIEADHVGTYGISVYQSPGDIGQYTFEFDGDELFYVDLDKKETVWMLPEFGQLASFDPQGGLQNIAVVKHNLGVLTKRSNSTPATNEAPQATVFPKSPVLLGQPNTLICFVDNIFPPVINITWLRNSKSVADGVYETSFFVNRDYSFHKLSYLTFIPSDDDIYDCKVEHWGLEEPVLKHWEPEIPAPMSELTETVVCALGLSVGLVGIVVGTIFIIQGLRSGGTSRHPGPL
Chain of Class II MHC (mouse), on splenocytes and lymphoid organ cells (mouse) (P14483 28-265, chain 2 of 2, further chain): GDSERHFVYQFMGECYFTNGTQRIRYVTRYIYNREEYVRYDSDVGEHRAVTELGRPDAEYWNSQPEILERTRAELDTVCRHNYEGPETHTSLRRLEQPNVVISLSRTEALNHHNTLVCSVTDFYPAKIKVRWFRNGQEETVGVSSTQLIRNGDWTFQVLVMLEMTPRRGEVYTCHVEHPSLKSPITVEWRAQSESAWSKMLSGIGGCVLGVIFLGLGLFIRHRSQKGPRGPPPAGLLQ
T1 sequence (P05555 17-1153): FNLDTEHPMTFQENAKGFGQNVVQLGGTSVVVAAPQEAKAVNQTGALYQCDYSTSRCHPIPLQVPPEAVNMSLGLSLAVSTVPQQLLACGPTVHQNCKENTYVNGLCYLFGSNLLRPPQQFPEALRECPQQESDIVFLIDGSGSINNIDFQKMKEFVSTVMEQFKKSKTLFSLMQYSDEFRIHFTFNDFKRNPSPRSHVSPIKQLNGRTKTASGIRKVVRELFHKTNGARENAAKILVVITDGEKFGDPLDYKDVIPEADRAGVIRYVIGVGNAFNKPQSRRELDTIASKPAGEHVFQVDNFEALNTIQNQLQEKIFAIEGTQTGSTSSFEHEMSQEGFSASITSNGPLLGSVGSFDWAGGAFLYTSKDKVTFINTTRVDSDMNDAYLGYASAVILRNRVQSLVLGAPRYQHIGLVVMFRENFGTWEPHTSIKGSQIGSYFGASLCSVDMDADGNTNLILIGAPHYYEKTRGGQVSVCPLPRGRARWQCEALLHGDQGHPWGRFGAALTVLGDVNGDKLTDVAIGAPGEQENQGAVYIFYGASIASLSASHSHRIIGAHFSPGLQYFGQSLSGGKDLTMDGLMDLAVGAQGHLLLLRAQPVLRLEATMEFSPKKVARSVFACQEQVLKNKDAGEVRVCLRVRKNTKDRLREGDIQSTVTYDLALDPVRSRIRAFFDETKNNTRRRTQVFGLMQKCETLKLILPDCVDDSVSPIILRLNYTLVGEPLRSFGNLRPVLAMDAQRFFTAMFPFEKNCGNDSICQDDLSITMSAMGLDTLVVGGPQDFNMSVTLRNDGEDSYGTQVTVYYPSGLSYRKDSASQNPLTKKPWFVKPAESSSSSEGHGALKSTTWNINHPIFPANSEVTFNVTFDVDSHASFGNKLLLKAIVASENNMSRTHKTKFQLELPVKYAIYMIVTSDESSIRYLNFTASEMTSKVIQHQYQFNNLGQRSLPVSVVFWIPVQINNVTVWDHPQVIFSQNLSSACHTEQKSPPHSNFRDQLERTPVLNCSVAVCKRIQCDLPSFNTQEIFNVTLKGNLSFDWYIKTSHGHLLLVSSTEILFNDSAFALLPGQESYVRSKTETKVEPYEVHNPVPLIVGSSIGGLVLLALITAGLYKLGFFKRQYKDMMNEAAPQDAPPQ

B1: DC8-dimer (bivalent DC8, two DC8 VHHs joined through their C-termini) (VHH)
VHH: QVQLQESGGGLVQPGGSLRLSCTASGFTFSTYYMSWVRKAPGKGPEWVSVMNSSGGDTRYADFVKGRFTISRDNAKNTLYLQMNSLKPEDTALYYCAQGRSDIYPTFTRGQGTQVTVSS
modifications: Each chain is sortagged at LPET. One carries (Gly)3-Cys(maleimide-DBCO), the other (Gly)3-PEG12-Cys(X)-PEG5-Lys(azide), where X is Alexa647, Texas Red or TCO/18F-tetrazine. The two chains are joined C-terminus to C-terminus by DBCO-azide click chemistry.
For the molecule B1, the fold better binding than the corresponding monomer in test [1] was determined as 3.3 fold.

B2: DC8-Alexa647-PEG-5 kDa (PEGylated DC8, 5 kDa PEG) (VHH)
VHH: B1 VHH
modifications: Sortagged at LPET with (Gly)3-PEG12-Cys(X)-PEG5-Lys(azide), where X is Alexa647, Texas Red or TCO/18F-tetrazine. DBCO-PEG 5 kDa is clicked onto the azide.
As to B2, in test [2], the increase in staining versus non-PEGylated DC8 is 30%.

B3: DC8-Alexa647-PEG-10 kDa (PEGylated DC8, 10 kDa PEG) (VHH)
VHH: B1 VHH
modifications: Sortagged at LPET with (Gly)3-PEG12-Cys(X)-PEG5-Lys(azide), where X is Alexa647, Texas Red or TCO/18F-tetrazine. DBCO-PEG 10 kDa is clicked onto the azide.
B3 gave an increase in staining versus non-PEGylated DC8 in test [2] of 100%.

B4: DC8-Alexa647-PEG-20 kDa (PEGylated DC8, 20 kDa PEG) (VHH)
VHH: B1 VHH
modifications: Sortagged at LPET with (Gly)3-PEG12-Cys(X)-PEG5-Lys(azide), where X is Alexa647, Texas Red or TCO/18F-tetrazine. DBCO-PEG 20 kDa is clicked onto the azide.
In turn, B4 returned an increase in staining versus non-PEGylated DC8 in test [3] of 220%.

B5: DC13-dimer (bivalent DC13, two DC13 VHHs joined through their C-termini) (VHH)
VHH: QVQLQESGGGLVQTGGSLRLSCAASGVDFNWYSMGWFRQAPGKEREYVASIDQGGELDYAISVKGRFTISRDNAKNMVYLQMNSLKPEDTAVYYCAADFSGRGASNPDKYKYWGQGTQVTVSS
modifications: Each chain is sortagged at LPET. One carries (Gly)3-Cys(maleimide-DBCO), the other (Gly)3-PEG12-Cys(X)-PEG5-Lys(azide), where X is Alexa647, Texas Red or TCO/18F-tetrazine. The two chains are joined C-terminus to C-terminus by DBCO-azide click chemistry.
notes: This is a chemical C-to-C dimer; also called anti CD11b dimer; 18F-DC13 dimer
For B5, the “fold better binding than the corresponding monomer” value in test [4] was ~2.3 fold.
